Assay results from the RNAGym collection of RNA variant scans (doi:10.1073/pnas.2313332121).

B1: TPR t1 (parent)
chain: GACCAAUCUGCCCUCAGAGCUCGAGAACAUCUUCGGAUGCAGAGGAGGCAGGCUUCGGUGGCGCGAUAGCGCCAACGUCCUCAACCUCCAAUGCAUCCCACCACAUGAUGAUGCCUGAAGAGCCUUGGUUUUUUG

Variants of: B1
Test: polymerase ribozyme fitness, log enrichment relative to wild type (log ratio); higher = more active; in vitro selection for triplet polymerase activity
Procedure, shortened: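 Only genotypes with ≥10 input reads and ≥1 read per output were kept after Illumina sequencing of input and output libraries. These libraries were PCR-built, transcribed mutants of each subunit of a heterodimeric triplet polymerase ribozyme, each put through one triplicate in vitro selection round with frozen incubation at −7 °C, gel excision of extended constructs, streptavidin-bead capture and RT-PCR. Fitness is a logarithmic ratio of genotype enrichment to wild-type enrichment, from inverse-variance-weighted replicate averages, with the logarithm in base 2.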

Row | Variant | polymerase ribozyme fitness (log ratio)
1 | C12G U55A C56G U81C | -1.29
2 | C12G A37U G61C A75G | -1.16
3 | C12U A74C C79U A121U | 1.34
4 | C12U A27G C28G G69U | -2.22
5 | C12G A37G | 0.106
6 | C12U A26U C34G A50U C79U A83C C85G G110A A111C | -7.36
7 | C12G C94U | -0.437
8 | C12U A27C A95U U125A | -3.79
9 | C12A G117C | -3
10 | C12A G61A | -0.687
11 | C12A G61U | -0.581
12 | C12G U38C G69U C123A | 1.35
13 | C12G A43U C70A C79U C82A U96A | -5.11
14 | C12G C56U U78A A90C C114U | -2.46
15 | C12U A41U C72G | -1.1
16 | C12A G52U G57U C64U C72U A105U | -3.63
17 | C12U A27G G48C | -1.97
18 | C12G C40U U55A C82G | -0.877
19 | C12A U78A A119U | -0.914
20 | C12U C20G A83C C98U A121U | -4.1
21 | C12G C64G C123G | -6.23

Row | Variant | polymerase ribozyme fitness (log ratio)
22 | C12A G48U C102A A118G | -4.24
23 | C12U A83C G122U | 0.68
24 | C12G C62U C89A C94U | -2
25 | C12G C101G C102G G110C | -5.71
26 | C12G G19C G57A A119G U131A | -3.15
27 | C12U A26U C94U A118G | -2.71
28 | C12A U21C C40U G42A A50C | -3.16
29 | C12G U32A | -3.25
30 | C12G U32G | -6.87
31 | C12U A18G G19C A37U A118U A121G | -1.65
32 | C12G C13U G19U G44C C73A G93A | -4.75
33 | C12U C20G U106C | -3.81
34 | C12U A41G G48A C86U | -0.927
35 | C12A U55G G57A U109A G117U U132C U134G | -6.47
36 | C12A G93A | -1.39
37 | C12U C15U U21G C101A | -3.11
38 | C12A G51U A90G | -2.76
39 | C12G C62G C72G U87A G113U U125G | -5.49
40 | C12G G47A G113A C124U U129G U133A | -4.6
41 | C12G G48A | -0.668
42 | C12G A26U G45U U106A G127U | -4.14

Row | Variant | polymerase ribozyme fitness (log ratio)
43 | C12U C15A A37C G52U C72U U116G | -3.77
44 | C12G C15U A74U U116A G117A U133A | -1.36
45 | C12U A41U G71U A103U A118U | -6.98
46 | C12G U78C | -0.718
47 | C12U C20A C56A U116G | -4.71
48 | C12U A41C C72G C86A U109A | -7.19
49 | C12G C115U | -1.38
50 | C12G C115A | -0.408
51 | C12G C102A | -1.85
52 | C12G C102U | -1.38
53 | C12G G45U C101U A118U | -0.398
54 | C12U C13G A37U U54G C80A | -4.65
55 | C12G C62G C99G C124A | -7.37
56 | C12A G69U G128C | -1.9
57 | C12U A29G G45U C56U C89A A91U G110A G127U | -5.23
58 | C12A U96A | -1.84
59 | C12A G60A C88A C101A C102A | -4.87
60 | C12U C15A G52A | -0.639
61 | C12G U112A | 1.99
62 | C12U | 0.39
63 | C12G | 0.29

Row | Variant | polymerase ribozyme fitness (log ratio)
64 | C12A G107A | -5.12
65 | C12U A83C C114A C123G C124G | -0.26
66 | C12G G110C | -3.59
67 | C12G G110U | -1.12
68 | C12G G110A | -0.401
69 | C12U A18C C70U A75U U125G | -5.05
70 | C12G U21C C101U A105U | -4.94
71 | C12G G39A G44A C102U | -4.47
72 | C12A U78C A84U | -1.77
73 | C12G A18U | -1.46
74 | C12A G122U C124A | 1.6
75 | C12U A29G U125A | -1.53
76 | C12A G57A G60A | -0.307
77 | C12U A24G G36A G63A | -2.54
78 | C12G C20U | -0.703
79 | C12A G61U C79A | -1.28
80 | C12U A66U U78A U87C | -0.338
81 | C12G C72G | 0.202
82 | C12U A18G A41U G47C C72U U109G C124G | -3.69
83 | C12G A43G C79A U112A G117C | -4.33
84 | C12U A74G A83C C114A C123G C124G | -1.02
